Experimental data as given in US20060177880A1 (ROCHE DIAGNOSTICS OPERATIONS, published 2006).

Biological target: T1, ILEU (Leukocyte elastase inhibitor) (human, UniProt P30740 1-379)
T1 sequence: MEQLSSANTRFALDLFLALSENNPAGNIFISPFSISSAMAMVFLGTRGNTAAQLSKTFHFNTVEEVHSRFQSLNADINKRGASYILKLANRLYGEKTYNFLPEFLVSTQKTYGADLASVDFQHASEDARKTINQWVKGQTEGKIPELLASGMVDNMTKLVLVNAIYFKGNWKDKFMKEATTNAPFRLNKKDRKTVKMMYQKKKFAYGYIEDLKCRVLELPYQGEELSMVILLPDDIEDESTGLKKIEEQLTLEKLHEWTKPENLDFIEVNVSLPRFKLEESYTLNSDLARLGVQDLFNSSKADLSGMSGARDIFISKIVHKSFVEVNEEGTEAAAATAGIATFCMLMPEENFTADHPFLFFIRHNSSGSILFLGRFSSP
Assay: 2D gel (IEF and SDS-PAGE) of tumor tissue lysate, spot identified by MALDI-TOF mass spectrometry
Description: For IEF, 3 ml of the suspension are mixed with 12 ml sample buffer (7 M urea, 2 M thiourea, 2% CHAPS, 0.4% IPG buffer pH 6-9, 0.5% DTT) and incubated for 1 h. The samples are concentrated in an Amicon® Ultra-15 device (Millipore GmbH, Schwalbach, Germany) and the protein concentration is determined using the Bio-Rad® protein assay (Cat. No. 500-0006; Bio-Rad Laboratories GmbH, Munchen, Germany) following the instructions of the supplier's manual. To a volume corresponding to 1.5 mg of protein sample buffer is added to a final volume of 350 μl. This solution is used to rehydrate IPG strips pH 6-9 (Amersham Biosciences, Freiburg, Germany) overnight. The IEF is performed using the following gradient protocol: 1.) 1 minute to 500 V; 2.) 2 h to 3,500 V; 3.) 22 h at constant 3,500 V giving rise to 82 kVh. After IEF, strips are stored at −80° C. or directly used for SDS-PAGE. […]
Each patient is analyzed separately by image analysis with the ProteomeWeaver® software (Definiens AG, Germany, München). […] For each patient, 4 gels from the tumor sample are compared with 4 gels each from adjacent normal and stripped mucosa tissue and analyzed for distinctive spots corresponding to differentially expressed proteins. […]

B1: PRN3 (proteinase 3) (enzyme)
chain: IVGGHEAQPHSRPYMASLQMRGNPGSHFCGGTLIHPSFVLTAAHCLRDIPQRLVNVVLGAHNVRTQEPTQQHFSVAQVFLNNYDAENKLNDVLLIQLSSPANLSASVATVQLPQQDQPVPHGTQCLAMGWGRVGAHDPPAQVLQELNVTVVTFFCRPHNICTFVPRRKAGICFGDSGGPLICDGIIQGIDSFVIWGCATRLFPDFFTRVALYVDWIRSTLR
notes: Endogenous protein in lysates of human colorectal tumor tissue, with an apparent MW of ~28 kDa on the blot; also called uncomplexed PRN3
  binding result: binds
